Reference: patent publication US20220251518A1 (published 2022)

Biological target: T1, Aβ1-42, monomer and/or protofibrils (form not told for the result) (human, UniProt P05067 672-713)
T1 construct: domain: amyloid beta (Aβ) 1-42 peptide; also called Aβ1-42 peptide or protofibrils; mixture of Aβ1-42 peptide (monomer) and protofibrils
Assay: BLI (Octet RED 96), antibody captured on anti-rat IgG probe; monomer or protofibrils not told

T1 sequence (P05067 672-713 limits assumed): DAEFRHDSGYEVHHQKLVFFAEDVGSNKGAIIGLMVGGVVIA

B1: monoclonal antibody 11G10 (antibody, V domains shown)
VH: EVQLQQSGAEIVKPGASVKLSCKASGYTFTSYWMHWVKQRPGQGLEWIGEIDPSDSYTNYNQKFKGKATLTVDKSSSTAYMQLRSLTSEDSAVYYCARSFHGNLFVYWGQGTLVTVSA
VL: QIVLTQSPAIMSASPGEKVTITCSASSSVSYMHWFQQKPGTSPKLWIYSTSNLATGVPARFSGSGSGTSYSLTISRMEAEDAATYYCQQRSSYPLTFGAGTKLEIK
Kd: 1 pM
